The record followed here is US20170260242, “METHOD FOR MODIFYING RNA BINDING PROTIEN USING PPR MOTIF” (Kyushu University, National University Corporation, published 2017).

Data set [1] deals with T1, 8&9/8-D8K (Arabidopsis thaliana, UniProt Q9SF38 SEQ:124-194).
T1 chain: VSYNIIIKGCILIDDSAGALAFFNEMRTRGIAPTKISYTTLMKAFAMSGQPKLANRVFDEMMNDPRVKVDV
The data set is described as follows: EMSA; no change vs 8&9. To be noted: tags: N-terminal thioredoxin, C-terminal His; label: 32P-UTP internal.
Procedure: (§1) The RNA binding activity of the mini PPR protein was analyzed by gel shift method. […] Then, to the reaction solution was added 4 microliters of 80% glycerol solution, and 10 μL was developed in 10% nondenaturing polyacrylamide gel comprising 1×TBE (89 mM Tris-HCl, 89 mM Boric acid, and 2 mM EDTA) and the gel was dried after electrophoresis. The radioactivity of RNA in the gel was measured with Bioimaging Analyzer BAS2000 (From Fujifilm). […] This is because the molecular weight of the 32P-labeled RNA/protein conjugate is larger than the molecular weight of the 32P-labeled RNA alone and thus mobility in electrophoresis had become slower. The binding between protein and RNA was quantified based on the results in FIGS. 1C-H (FIG. 1B), and evaluated by determining the disassociation constant (Kd) (FIG. 2C).

Data set [2] has as its target T2, 5&6/5-G14A (Arabidopsis thaliana, UniProt Q9SF38 SEQ:124-197).
T2 chain: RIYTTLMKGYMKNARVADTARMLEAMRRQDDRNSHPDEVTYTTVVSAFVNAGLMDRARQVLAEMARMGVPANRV
Put plainly: EMSA; position 14 not among those with 10-fold or more reduction (position-level). To be noted: tags: N-terminal thioredoxin, C-terminal His; label: 32P-UTP internal. For orientation: A gel shift assay detects complexes by their altered migration in electrophoresis.
Procedure: as §1
(§2) Using HCF152/5&6 as the model, mini PPR proteins having one amino acid substitution introduced centering on the aforementioned positions (1st, 2nd, 4th, 5th, 8th, 9th, 11th, and 12th) were prepared. The amino acid substitutions were based on substitution to alanine. […] Affinity with RNA was analyzed by the same gel shift method as above (FIG. 3), and the affinity with the RNA was evaluated with Kd (FIG. 4B).

Data set [3] deals with T3, 5&6/5-G14D (Arabidopsis thaliana, UniProt Q9SF38 SEQ:124-197).
T3 chain: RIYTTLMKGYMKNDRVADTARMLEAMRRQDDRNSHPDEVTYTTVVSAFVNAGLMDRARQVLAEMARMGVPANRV
The description is as above. Particulars: tags: N-terminal thioredoxin, C-terminal His; label: 32P-UTP internal.
Procedure: as §1, §2

Data set [4] deals with T4, HCF152/8&9 (Arabidopsis thaliana, UniProt Q9SF38 SEQ:124-195).
T4 chain: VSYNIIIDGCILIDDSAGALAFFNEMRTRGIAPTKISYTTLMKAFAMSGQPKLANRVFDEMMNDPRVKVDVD
Put plainly: EMSA; 6 mM MgCl2, 30 mM KCl, pH 7.9, 25 C. To be noted: tags: N-terminal thioredoxin, C-terminal His; label: 32P-UTP internal.
Procedure: (§3) The RNA binding activity of the mini PPR protein was analyzed by gel shift method. […] Then, to the reaction solution was added 4 microliters of 80% glycerol solution, and 10 μL was developed in 10% nondenaturing polyacrylamide gel comprising 1×TBE (89 mM Tris-HCl, 89 mM Boric acid, and 2 mM EDTA) and the gel was dried after electrophoresis. The radioactivity of RNA in the gel was measured with Bioimaging Analyzer BAS2000 (From Fujifilm). […] The binding between protein and RNA was quantified based on the results in FIGS. 1C-H (FIG. 1B), and evaluated by determining the disassociation constant (Kd) (FIG. 2C).

In data set [5] the target is T5, HCF152/10&11 (Arabidopsis thaliana, UniProt Q9SF38 SEQ:124-195).
T5 sequence: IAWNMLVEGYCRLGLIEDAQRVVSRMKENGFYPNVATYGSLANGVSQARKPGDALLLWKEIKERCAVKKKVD
Put plainly: EMSA; 6 mM MgCl2, 30 mM KCl, pH 7.9, 25 C. To be noted: tags: N-terminal thioredoxin, C-terminal His; label: 32P-UTP internal.
Procedure: as §3

Data set [6] addresses T6, 5&6/5-K12M,6-N12R (Arabidopsis thaliana, UniProt Q9SF38 SEQ:124-197).
T6 chain: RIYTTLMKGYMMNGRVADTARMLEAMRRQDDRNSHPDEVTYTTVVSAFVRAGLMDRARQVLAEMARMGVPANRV
Put plainly: EMSA; partly restored vs 6-N12R. To be noted: tags: N-terminal thioredoxin, C-terminal His; label: 32P-UTP internal.
Procedure: as §3

The target of data set [7] is T7, 5&6/5-M11I (Arabidopsis thaliana, UniProt Q9SF38 SEQ:123-204).
T7 chain: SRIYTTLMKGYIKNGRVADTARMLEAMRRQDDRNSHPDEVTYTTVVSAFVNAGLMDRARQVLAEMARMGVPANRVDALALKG
The data set is described as follows: EMSA; position 11 not among those with 10-fold or more reduction (position-level). Particulars: tags: N-terminal thioredoxin, C-terminal His; label: 32P-UTP internal.
Procedure: as §1, §2

Data set [8] has as its target T8, 5&6/5-M11A (Arabidopsis thaliana, UniProt Q9SF38 SEQ:123-204).
T8 chain: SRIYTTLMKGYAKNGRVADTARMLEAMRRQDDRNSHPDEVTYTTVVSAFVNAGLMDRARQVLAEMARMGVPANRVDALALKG
The description is as above. Particulars: tags: N-terminal thioredoxin, C-terminal His; label: 32P-UTP internal.
Procedure: as §1, §2

The target in data set [9] is T9, 6&7/6-S8K (Arabidopsis thaliana, UniProt Q9SF38 SEQ:124-195).
T9 chain: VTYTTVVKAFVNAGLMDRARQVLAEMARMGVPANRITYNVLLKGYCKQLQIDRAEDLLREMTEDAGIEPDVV
Put plainly: EMSA; affinity improved vs 6&7; value in figure. To be noted: tags: N-terminal thioredoxin, C-terminal His; label: 32P-UTP internal.
Procedure: as §3

The target in data set [10] is T10, 6&7/6-V1R (Arabidopsis thaliana, UniProt Q9SF38 SEQ:124-195).
T10 chain: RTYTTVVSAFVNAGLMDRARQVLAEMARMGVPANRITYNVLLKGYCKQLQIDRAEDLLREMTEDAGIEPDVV
The data set is described as follows: EMSA; affinity improved vs 6&7; value in figure. To be noted: tags: N-terminal thioredoxin, C-terminal His; label: 32P-UTP internal.
Procedure: as §3

The target in data set [11] is T11, 6&7/7-N4T (Arabidopsis thaliana, UniProt Q9SF38 SEQ:124-195).
T11 chain: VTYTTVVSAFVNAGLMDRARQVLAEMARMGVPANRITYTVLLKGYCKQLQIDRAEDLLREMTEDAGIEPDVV
The data set is described as follows: EMSA; affinity improved vs 6&7; value in figure. Particulars: tags: N-terminal thioredoxin, C-terminal His; label: 32P-UTP internal.
Procedure: as §3

In data set [12] the target is T12, HCF152/5&6 (Arabidopsis thaliana, UniProt Q9SF38 SEQ:124-197).
T12 chain: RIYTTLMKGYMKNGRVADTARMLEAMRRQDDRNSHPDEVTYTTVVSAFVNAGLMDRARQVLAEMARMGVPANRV
Put plainly: EMSA; 6 mM MgCl2, 30 mM KCl, pH 7.9, 25 C. Particulars: tags: N-terminal thioredoxin, C-terminal His; label: 32P-UTP internal.
Procedure: as §1

In data set [13] the target is T13, 5&6/5-T5I (Arabidopsis thaliana, UniProt Q9SF38 SEQ:123-204).
T13 chain: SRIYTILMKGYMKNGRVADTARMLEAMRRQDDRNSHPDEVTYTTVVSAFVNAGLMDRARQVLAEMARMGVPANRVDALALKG
Put plainly: EMSA; position 5 not among those with 10-fold or more reduction (position-level). To be noted: tags: N-terminal thioredoxin, C-terminal His; label: 32P-UTP internal.
Procedure: as §1, §2

Data set [14] concerns the target T14, 5&6/5-N13A (Arabidopsis thaliana, UniProt Q9SF38 SEQ:123-204).
T14 chain: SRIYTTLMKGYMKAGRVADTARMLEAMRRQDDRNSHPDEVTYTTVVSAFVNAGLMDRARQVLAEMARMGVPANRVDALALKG
Put plainly: EMSA; position 13 not among those with 10-fold or more reduction (position-level). To be noted: tags: N-terminal thioredoxin, C-terminal His; label: 32P-UTP internal.
Procedure: as §1, §2

Data set [15] has as its target T15, 5&6/5-N13L (Arabidopsis thaliana, UniProt Q9SF38 SEQ:123-204).
T15 chain: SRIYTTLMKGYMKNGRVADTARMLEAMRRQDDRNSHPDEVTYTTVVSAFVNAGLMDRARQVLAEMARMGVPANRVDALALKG
Described as above. To be noted: tags: N-terminal thioredoxin, C-terminal His; label: 32P-UTP internal.
Procedure: as §1, §2

Data set [16] addresses T16, 5&6/5-K12N,6-N12K (Arabidopsis thaliana, UniProt Q9SF38 SEQ:124-197).
T16 chain: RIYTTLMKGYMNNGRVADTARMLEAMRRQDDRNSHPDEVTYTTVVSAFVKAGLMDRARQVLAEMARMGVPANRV
Put plainly: EMSA; affinity improved vs 5-K12N; value in figure. To be noted: tags: N-terminal thioredoxin, C-terminal His; label: 32P-UTP internal.
Procedure: as §3

Data set [17] deals with T17, 5&6/5-K12H (Arabidopsis thaliana, UniProt Q9SF38 SEQ:124-197).
T17 chain: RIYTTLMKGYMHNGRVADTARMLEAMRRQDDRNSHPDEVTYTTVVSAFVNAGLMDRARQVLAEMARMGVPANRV
Put plainly: EMSA; Kd almost equivalent to wild type 5&6; value in figure. To be noted: tags: N-terminal thioredoxin, C-terminal His; label: 32P-UTP internal.
Procedure: as §1

In data set [18] the target is T18, 8&9/8-D8K,9-K8D (Arabidopsis thaliana, UniProt Q9SF38 SEQ:124-194).
T18 chain: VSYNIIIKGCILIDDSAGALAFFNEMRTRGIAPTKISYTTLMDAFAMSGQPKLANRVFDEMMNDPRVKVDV
The data set is described as follows: EMSA; no significant difference vs 8&9. Particulars: tags: N-terminal thioredoxin, C-terminal His; label: 32P-UTP internal.
Procedure: as §3

In data set [19] the target is T19, 8&9/9-K8D (Arabidopsis thaliana, UniProt Q9SF38 SEQ:124-194).
T19 chain: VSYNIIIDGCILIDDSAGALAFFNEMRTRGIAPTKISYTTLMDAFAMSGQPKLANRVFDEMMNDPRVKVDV
The data set is described as follows: EMSA; no significant difference vs 8&9. To be noted: tags: N-terminal thioredoxin, C-terminal His; label: 32P-UTP internal.
Procedure: as §3

Data set [20] concerns the target T20, HCF152/7&8 (Arabidopsis thaliana, UniProt Q9SF38 SEQ:124-196).
T20 chain: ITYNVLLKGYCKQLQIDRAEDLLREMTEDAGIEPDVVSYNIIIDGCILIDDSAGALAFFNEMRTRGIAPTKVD
Put plainly: EMSA; A>U>G; 200 nM protein. Particulars: tags: N-terminal thioredoxin, C-terminal His; label: 5'-32P.
Procedure: (§4) The binding specificity of the mini PPR proteins were analyzed by gel shift method. […] Then, to the reaction solution was added 4 μl of 80% glycerol solution, and 10 μL was developed in 10% nondenaturing polyacrylamide gel comprising 1×TBE (89 mM Tris-HCl, 89 mM Boric acid, and 2 mM EDTA) and the gel was dried after electrophoresis. The radioactivity of RNA in the gel was measured with Bioimaging Analyzer BAS2000 (From Fujifilm).

Data set [21] has as its target T21, CAR4/6 (I1L) (Arabidopsis thaliana, UniProt O22137 SEQ:124-155).
T21 chain: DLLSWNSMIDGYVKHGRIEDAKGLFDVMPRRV
Put plainly: EMSA; did not bind A. To be noted: tags: N-terminal thioredoxin, C-terminal His; label: 5'-32P.

Data set [22] concerns the target T22, HCF152/9&10 (Arabidopsis thaliana, UniProt Q9SF38 SEQ:124-194).
T22 sequence: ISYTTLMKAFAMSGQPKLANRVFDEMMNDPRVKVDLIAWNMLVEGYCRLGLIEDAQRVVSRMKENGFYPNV
Put plainly: EMSA; A>G>U; 200 nM protein. To be noted: tags: N-terminal thioredoxin, C-terminal His; label: 5'-32P.
Procedure: as §4

Data set [23] addresses T12, HCF152/5&6. The data set is described as follows: EMSA; A>G>U; 200 nM protein. To be noted: tags: N-terminal thioredoxin, C-terminal His; label: 5'-32P.
Procedure: as §4
In data set [24] the target is T23, HCF152/2&3 (Arabidopsis thaliana, UniProt Q9SF38 SEQ:124-194).
T23 sequence: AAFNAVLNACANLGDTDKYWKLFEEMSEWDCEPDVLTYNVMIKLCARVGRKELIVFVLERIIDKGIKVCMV
Put plainly: EMSA; A>G>U; 200 nM protein. To be noted: tags: N-terminal thioredoxin, C-terminal His; label: 5'-32P.
Procedure: as §4

In data set [25] the target is T24, CAR4/6 (CRR4 PPR motif 6) (Arabidopsis thaliana).
T24 chain: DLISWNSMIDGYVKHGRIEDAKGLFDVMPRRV
The data set is described as follows: EMSA; preference for A. Particulars: tags: N-terminal thioredoxin, C-terminal His; label: 5'-32P.

B1: BD120 (petB) (ssRNA)
RNA: CUGGAUGGAAUUUCAGUGAAUUAGACUGAGAAGAAUCUUGAAGUUCUAGCUUUUAGCUCGAUACAAAAAAGUAAAGUAUGCAGGUCUAACAAUUUUAGCCUAUUCUCCUUUGGUAGUUCG
For B1, the binding result in data set [1], in data set [2], in data set [3], in data set [7], in data set [8] and in data set [9] was “binds” throughout. Besides, the binding result in data set [10], in data set [11], in [13], in data set [14], in [15] and in data set [16] was “binds” each time. The binding result in data set [17], in [18] and in data set [19] was “binds” each time. Further, the Kd (as a rule, the concentration at which binding is half-saturated) in data set [4] came out at 5.3 nM; in data set [5], 5240 nM; in data set [6], 473 nM; in [12], 21.1 nM.

As to AUCGAAAAAAAAAAAAAAAAAAAAAAAAA (ssRNA) [LA25], the binding result is listed as “binds” in data set [20]; “no binding” in [21]; “binds” in data set [22]; “binds” in [23]; “binds” in data set [24]; “binds” in [25].
